{"source": "the DeepSol protein solubility set", "data": [{"assay": "soluble on expression in E. coli; label from the status in PepcDB or PDB records", "values": [{"sequence": "MAHHHHHHMNAVKEADVVFLEAYTSFLINSNAEKLAGIYGKPVILADREMVESGAVLDDAKVKKVVLLVVGDVFGATTHSDLIVRCNRQGIESKIVHNASIINAVGCCGLQLYRFGQVISLCFWTETWRPDSWYERLQSNRAAGIHTLVLLDIKVKEISDENLARGRKIYEPPRYMTIRQAIEQILEVEGYKQGGAVAADGSTFAVGLARVGSESQQVVAGTMKDLLSVDFGAPLHSLVIAGDVHDCEQEHVDLFRMAGQ", "soluble on expression in E. coli": "not soluble"}, {"sequence": "SLILHAQAKHGKPGLPWLVFLHGFSGDCHEWQEVGEAFADYSRLYVDLPGHGGSAAISVDGFDDVTDLLRKTLVSYNILDFWLVGYSLGGRVAMMAACQGLAGLCGVIVEGGHPGLQNAEQRAERQRSDRQWVQRFLTEPLTAVFADWYQQPVFASLNDDQRRELVALRSNNNGATLAAMLEATSLAVQPDLRANLSARTFAFYYLCGERDSKFRALAAELAADCHVIPRAGHNAHRENPAGVIASLAQILRF", "soluble on expression in E. coli": "soluble"}, {"sequence": "MGSDKIHHHHHHMLTRQRPLHGIGTTQAAVLKHLRRNGIASRAELAELCGVTQAAVSMMTRDLIARGIVIQGARRQSQRGAPHIDLMLAGNIGYALGVHANSYSLTVTLLDFCGNRIGEQQLEGPYDRFSDIQTAIKSLRTDLLTSNGIDEGLLIGAAVAMPTRFRHGTAFLDLAEEVVSWAGSDLASTLRETLDCPVMIENDANAAAMGELALGNASGHDNFAYLYLSEGIGSGIIIGKELYRGNLGNAGEVGALRARGLSRPSFDDLAAWCKEHQGHIPKGRSSDQWTAYLQANPTVLDAWLRRAGPELATLAFMVTAVLAPSAIYIGGTLPRLVREKLAPWLDFSTSNPFDGARVIQPDILIPQISAVDAVAFGAAAMILHSVPGNPGL", "soluble on expression in E. coli": "not soluble"}, {"sequence": "AIAASSTDQNLMDLSDKDTREKLSFWDRRVDPMAPLTDRQTDSILELRAAAEETLLPAELPIEDICSLSSRSLRSSFTAALPESTEEVLLQGFQMLELHNHRIETAQQFFSWFSKLQVQMDQDEASKYRKTRDVLNGYQEQCDAILNDVNTALDHLDSLQKQYLFVSTKTGTLHEACEQLLKEQSELVDLAESIQEKLSYFNELENINTKLNSPTLSVNSEGFVPMLSKLDECIEYVSSHPNFKDYPVYLTKFKQCLSKAMQLIKSHTVNTLQNLTGQLSKRDPLGAPSA", "soluble on expression in E. coli": "not soluble"}, {"sequence": "MSLELNFSQTLGNHCLTINETLPANGITAIFGVSGAGKTSLINAISGLTRPQKGRIVLNGRVLNDAEKGICLTPEKRRVGYVFQDARLFPHYKVRGNLRYGMSKSMVDQFDKLVALLGIEPLLDRLPGSLSGGEKQRVAIGRALLTAPELLLLDEPLASLDIPRKRELLPYLQRLTREINIPMLYVSHSLDEILHLADRVMVLENGQVKAFGALEEVWGSSVMNPWLPKEQQSSILKVTVLEHHPHYAMTALALGDQHLWVNKLGEPLQAALRIRIQASDVSLVLQPPQQTSIRNVLRAKVVNSYDDNGQVEVELEVGGKTLWARISPWARDELAIKPGLWLYAQIKSVSITEGHHHHHH", "soluble on expression in E. coli": "soluble"}, {"sequence": "KGNTFLWLDDILYCERVDGLVFAYTKNKVYQIFHSLRDLEASYYRLGYVRCSKSMIVNIYKIHYFNSEPYGRIRATMENKEEIIISRKYANRIRTILQ", "soluble on expression in E. coli": "not soluble"}, {"sequence": "MTGEIVTVVKGKVRWVEGEQFIGRIEGDKCSVILGEGGISPMKLLLLSVAGCTSYDVVMILKKMREPIKGLEVEIEGVRREEHPRIYKEVTIHYKIYGNVNEKKARRAIELSQEKYCSASAHLKLSGTDVKYTLEVIRDDEPPSQLNK", "soluble on expression in E. coli": "soluble"}, {"sequence": "MADDDDRVDISNETLASLVGRPMSSSGNRIRATPSRRRLVSAPTNPRWSPSADDRRLFSYVSSMRSDSNSSSKSPSPPSAKMSKRPNGPYSVRKYQPRGSPPSDGSDKIHRFGESPTPGGVGGVFGTELDDLIIDELMGMEDDQRMRPGATRPMTIGGEKTMSMARPIPGASSRAGSGHSGSPITIPNAMSNNFRQVVSSSAPTSSIDIEKMIGAVSNGGGNSGGDNDPEDYYRDRRKKDIHNMIERRRRYNINDRIKELGQMLPKNTSEDMKLNKGTILKASCDYIRVLQKDREQAMKTQQQQKSLESTAHKYADRVKELEEMLARQGVQVPPSHLPPIPKVIERPIKQEIDESPPNHTPTGSFVSSSGFLSEVTNNTAAMQITSPNDSRPNNFMNNSAPSDSFFSVGSASPPDYRTSSGTASWKLPGSNAFSDLMMDDLNPMMNGDPLISSAGAHPSPHFHSSQMSPDIHWDASGFSPDPINTQQSNSGHYHMDFS", "soluble on expression in E. coli": "not soluble"}, {"sequence": "MSLTSYSYRQSSATSSFGGLGGGSVRFGPGVAFRAPSIHGGSGGRGVSVSSARFVSSSSSGAYGGGYGGVLTASDGLLAGNEKLTMQNLNDRLASYLDKVRALEAANGELEVKIRDWYQKQGPGPSRDYSHYYTTIQDLRDKILGATIENSRIVLQIDNARLAADDFRTKFETEQALRMSVEADINGLRRVLDELTLARTDLEMQIEGLKEELAYLKKNHEEEISTLRGQVGGQVSVEVDSAPGTDLAKILSDMRSQYEVMAEQNRKDAEAWFTSRTEELNREVAGHTEQLQMSRSEVTDLRRTLQGLEIELQSQLSMKAALEDTLAETEARFGAQLAHIQALISGIEAQLGDVRADSERQNQEYQRLMDIKSRLEQEIATYRSLLEGQEDHYNNLSASKEGHHHHHH", "soluble on expression in E. coli": "not soluble"}, {"sequence": "MGSDKIHHHHHHMDIKLKDFEGPLDLLLHLVSQYKVDIYEVPIVEVIEQYLNYIETLQVMKLEVAGDYMLMASQLMLIKSRRLLPKVVEHIEEDLEQDLLEKIEEYSRFKAVSQALAKQHDQRAKWYSKPKQELIFEDAILQEDKTVMDLFLAFSNIMAAKRAVLKNNHTVIERDDYKIEDMMASIKQRLEKENVIRLSAIFEECQTLNEVISIFLASLELIKLHVVFVEQLSNFGAIILRKEKK", "soluble on expression in E. coli": "not soluble"}, {"sequence": "MGSDKIHHHHHHMILFGTGGIRGVMRKGEFDEETVKRASLSTALWLKEKGQKSVVIAYDTRKNSKEFAELAGRVFAGEGIEAYVFPEPTPTPVLSFAVRYMKTGGGVVITASHNPPEYNGYKVYTWDGVQAIPEYTNEITEIYKKVDLSHVKEGEIKFVPPEVKESYIKAVLEIVSNLPMKTDLDIAYSPLHGTGANYVPEVLKRLGFKVRLVEEQMKPDPNFSTVPTPNPEEDEALVLLNKKGATLGLATDPDCDRVGVVFKGRRLTGNQVGVLLTDFLLDHVKVENPLVIKTIVTTDMVRPICEEKGAFLEETPTGFKFIGHLIEEHTKKGDRNFVFGFEESCGYLAGNHARDKDGVVGSVLSAVAFSNYDPYEKLEELYQKYGYYMEKLINFKFEDVDRAVEIYRSLKNYDGIIDYSKGYGNVIPNETIAFVFEKSRIFVRPSGTEPKLKVYIHVRGDTREEAEELMKESESKIKEILKL", "soluble on expression in E. coli": "not soluble"}, {"sequence": "MAHHHHHHMSIAASSARKDGPHHPSSGLTGKETLQDARKMEYRASTLEAGGNDMECLQLMETALQIRCKEYGTGSSSPELLKEACDAAERVVMKCNVLGVKLFKEGKYDVATPLFGYAMEMTGEGSFPLRKDDERRRRLRGVTLNNHGCMERHRGHFSTALDYMQQSMQCTGQQSPVAFLNISAVQVQLRLCEEAAHSAVCAIQSLGPNPEDPSLLAVAHHNLAMALELIDPPRAHEEYRLALGLAQNTISRRSEVTRTIESNMQRFVMVLHECRPGNSALTGTNSPRSSCGHTLFVSPRSCSRERSPSGRDAASRTHRVDIFPHPFAVSAKETVAKRSISRPARADAGHPPKRLTSLSPMN", "soluble on expression in E. coli": "not soluble"}, {"sequence": "MSLMNKSQQVQTITLAAAQQMAAAVEKKATEINVAVVFSVVDRGGNTLLIQRMDEAFVSSCDISLNKAWSACSLKQGTHEITSAVQPGQSLYGLQLTNQQRIIIFGGGLPVIFNEQVIGAVGVSGGTVEQDQLLAQCALDCFSALEGGSHHHHHH", "soluble on expression in E. coli": "soluble"}, {"sequence": "SESPEGAGPGEIVKDVKVPQAALNVSAHETGDMCRTPVAEEEEEVGIPIPAPGFLQVTERRRLHPLSRASCLRSPSWTKTRAEQNREKQPPSDPERQGTIVDTFLTVEEPKED", "soluble on expression in E. coli": "soluble"}, {"sequence": "MAHHHHHHMAAFKPYRFIIFDQQIKNNQFYKSIITQLNLSLLCKEIYLNESFSCYQYEKLFLKKLVYYSFNNLGNNLKAREIKCSGHSSVDTGEHKLQQLINNVNKNENKNININKNINKNINKNVNINNADHNKCSDNSSDYHNFYENECMNNLNLINDLGDRHKNHPLYNVMMKNKKKELTTQSDINKLVSFHIYDNKNEKTFKNILSLNDTYNIDHMNILCLNNYKPIFNMLENYSINNKRISIYYPFYIINDDKNNKPQSNLYTKVADYCYNIVSDILPLNYKNINLSDIIKAIIINTELCQNEGNERMEVLKFMDIMDIIGKN", "soluble on expression in E. coli": "soluble"}, {"sequence": "MLGGKGRPSGVGGYRILVTTSRRPSPRIRSFVKDLSATIPGAFRFTRGHYSMEELAREAIIRGADRIVVVGERRGNPGIIRVYAVEGPERPDNIVSFIVKGVSLSRERRWGLPSLRGGEVLVARPLDSGVAVEFADAFVIAFHARLKPPEAAGYVEAVIESLDARTVAVTFRYGGAPVGPMLRLGKPAEMVKRGRRVAAALEHHHHHH", "soluble on expression in E. coli": "not soluble"}, {"sequence": "MTTILSVRDVKKVIGKKTIVENISFDVKQGEVFGFLGPNGAGKTTTIRMLVGLIKETEGTISIGGYSIKENFREAMRQIGSIVENPELYTYLTGWENLKQFARMLGGISDERIIEIAHMVHLDERIHDKVKTYSLGMKQRLGIAQALLGNPKLLILDEPTNGLDPAGIRELREFIHKLVKEENMSVFISSHLLSEVQMICDRVAIIHKGKMITVAKVEELIKTASDRVEWIVTPISKTKDMLVDAEEVREVSIEGDRLLCRMHISSISNWNKTFVENGIDVHSVKELVFTLEDLFIELTRGEQHA", "soluble on expression in E. coli": "not soluble"}, {"sequence": "MGSDKIHHHHHHMEKDRHEIEIFKIDQMFIGDSQEELIKQGEGRRKEHPIAAISTFNPVKRDVFQLIKLTEEKMIPELLGMRHKRMMQNPFSYFRATAGIMEKDLRQFPDGQSHIPVIICGDSHLTNFGFFASPERHLLFGLNDFDEARIGNWEFDLKRLLTSVVLIGRINGYPKEQLDGILAESVHSYRRGIKYANSLPLLDRFNLSYSVDDLLGQMTDNEQMKRVLLKVADRAPKKNSDAVVKKFTEKTEDGRLRFKKNPPRARRVSQKVYAELMASLEDYQKSVADDIRVLLINYEVTDIIRYSVGVGSWGTRCYLALLTGKDGSHLVLQIKEALPLRYNLSALTVEESQAQGKGEGKRIITAQRVLQTYHDPFLGAMEAGGRSFYVRQFRDMKDSIDPLNLDQESFSAYCNMCAFILAIAHYQSPTAPMIYGYVHKQKELDTGLAHWAVKYADQMEADYTCFAKYLQGEGDEE", "soluble on expression in E. coli": "not soluble"}, {"sequence": "MGSDKIHHHHHHMSEDILPITISLAGEKDTIRLGEDLALALKPGDCLTLIGDLGAGKSTLARAFIRAMADEPDLEVPSPTFTIIQTYTTRIPVAHLDLYRLSDVSELDELGIDEMLEDGICLIEWPDIAAEVLPPAQTITLQLTHSGEGRVAVIEAPAQQKARLDRVFAIREFLAKNGRGDATRRFLSGDASTRAYETISTDGPDLILMDWRRPMRGAIVADGKTYAEIVHLAQDARSFVAIGDYLRNSGFRAPEILAADIDQGILLLEDLGREGVLAADGTPIEERYLQSVACLATLHQTPRPALLPMRDGSTYDIPSFDRQAMKIEVSLLVEWYLPHKRGKALTDGEKQDYYAIWDGLIDALAGCETGLLLRDFHSPNILWQAQNSGIGQVGLIDFQDAMIGPTAYDLASIVQDARVTIPPELQTRLMSHYLNSRKATPAFDEAAFLKAFAIMSAQRNCKLAGIWVRLLERDKKPGYMKHMPRTFRYLADALSHPELAPLREWCVRMGMDFND", "soluble on expression in E. coli": "not soluble"}, {"sequence": "MGSDKIHHHHHHMQNQPPFIINSTYHREESKDIEFKSIASQHPVKKIVNHAEEYITGFLNALVEGQLYIGIDDAGKILGVKLSRSERDEIQKIIPNKLRNTDPIVSPSLYDIAFYNVLNEEQKDIEDLFVVNISVLGVDESQFYRTSSREYFLYKTTGGSTYLKTGTDCIKLNTTEIAQEIQKRKQKYLKQELDNIDDKLLQNPDNRSLLKEKANIAKLMGDIEKMDESYKRLINLNPNNSRTRVDYASAHKSIGDLEGALDILEDALKVDGDNLSILKTKGEILLGSDSSDKVKEAFQTYETALKLNPEDYTIITQIGIALRKLGKYKESIKVFNLALAKSPHYRAAKYEKRITYHKMFEGGIRI", "soluble on expression in E. coli": "not soluble"}]}]}
